# B1: FAM107A (parent)
# chain: LQRVLEHRRRNQLIKKKKEELEAK
# Variants of: B1
# Assay: protein stability index of a GFP-peptide fusion (GPS, HEK-293T) (PSI 1-6); higher = more stable
# Settings: c terminus: a fixed tail appended
# 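Note: lentivirally expressed fusions sorted by FACS into six bins by GFP to DsRed ratio, PSI derived from sequencing read proportions per bin multiplied by bin number.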
row,Variant,protein stability index
1,LQRVLEYRRRNQLIKKKKEELEAK,1.69
2,LQRVLEDRRRNQLIKKKKEELEAK,4.04
3,LQRVLEARRRNQLIKKKKEELEAK,3.67
4,LQRVLECRRRNQLIKKKKEELEAK,3.37
5,LQRVLEPRRRNQLIKKKKEELEAK,3.4
6,LQRVLERRRRNQLIKKKKEELEAK,3.19
7,LQRVLEGRRRNQLIKKKKEELEAK,4.29
8,LQRVLEHRRRNQLIKMKKEELEAK,3.09
9,LQRVLEHRRRNQLIKCKKEELEAK,3.26
10,LQRVLEHRRRNQLIKRKKEELEAK,3.04
11,LQRVLEHRRRNQLIKHKKEELEAK,3
12,LQRVLEHRRRNQLIKIKKEELEAK,3.28
13,LQRVLEHRRRNQLIKWKKEELEAK,3.58
14,LQRVLEHRRRNQLIKGKKEELEAK,4.52
15,LQRVLEHRRRNQLIKTKKEELEAK,3.85
16,LQRVLEHRRRNQLIKKKKEELQAK,3.59
17,LQRVLEHRRRNQLIKKKKEELYAK,3.26
18,LQRVLEHRRRNQLIKKKKEELDAK,2.62
19,LQRVLEHRRRNQLIKKKKEELKAK,4.21
20,LQRVLEHRRRNQLIKKKKEELTAK,3.51
21,LQRVLEHRRRNQLIKKKKEELRAK,2.26
22,LQRVLEHRRRNQLIKKKKEELHAK,2.33
23,LQRVLEHRRRNQLIKKKKEELNAK,2.82
24,LQRVLEHRRRNQLIKKKKEELCAK,2.54

row,Variant,protein stability index
1,LQRVLEHRRRNQLIKKKKNELEAK,2.98
2,LQRVLEHRRRNQLIKKKKTELEAK,3.19
3,LQRVLEHRRRNQLIKKKKVELEAK,2.7
4,LQRVLEHRRRNQLIKKKKKELEAK,2.97
5,LQRVLEHRRRNQLIKKKKDELEAK,4.2
6,LQRVLEHRRRNQLIKKKKSELEAK,3.13
7,LQRVLEHRRRNQLIKKKKFELEAK,2.22
8,LQRVLEHRRRNQLIKKKKEELEEK,4.14
9,LQRVLEHRRRNQLIKKKKEELEVK,3.03
10,LQRVLEHRRRNQLIKKKKEELEHK,2.76
11,LQRVLEHRRRNQLIKKKKEELEWK,4.26
12,LQRVLEHRRRNQLIKKKKEELECK,2.98
13,LQRVLAHRRRNQLIKKKKEELEAK,3.07
14,LQRVLIHRRRNQLIKKKKEELEAK,2.73
15,LQRVLPHRRRNQLIKKKKEELEAK,3.96
16,LQRVLGHRRRNQLIKKKKEELEAK,3.98
17,LQRVLVHRRRNQLIKKKKEELEAK,3.68
18,LQRVLMHRRRNQLIKKKKEELEAK,3.32
19,LQRVLFHRRRNQLIKKKKEELEAK,3.63
20,LQRVLHHRRRNQLIKKKKEELEAK,3.81
21,LQRVLDHRRRNQLIKKKKEELEAK,3.61
22,LQRVLEHRRRNQLIKKKKEEGEAK,3.63
23,LQRVLEHRRRNQLIKKKKEEFEAK,2.71
24,LQRVLEHRRRNQLIKKKKEEHEAK,3.77

row,Variant,protein stability index
1,LQRVLEHRRRNQLIKKKKEEIEAK,2.78
2,LQRVLEHRRRNQLIKKKKEEQEAK,3.48
3,LQRVLEHRRRNQLIKKKKEENEAK,4.16
4,LQRVLEHRRRNQLIKKKKEEREAK,4.14
5,LQRVLEHRRRNQLIKKKKEEMEAK,3.32
6,LQRVFEHRRRNQLIKKKKEELEAK,3.77
7,LQRVPEHRRRNQLIKKKKEELEAK,4.69
8,LQRVCEHRRRNQLIKKKKEELEAK,3.69
9,LQRVMEHRRRNQLIKKKKEELEAK,4.19
10,LQRVEEHRRRNQLIKKKKEELEAK,4.38
11,LQRVQEHRRRNQLIKKKKEELEAK,3.94
12,LQRVYEHRRRNQLIKKKKEELEAK,2.98
13,LQRVGEHRRRNQLIKKKKEELEAK,4.73
14,LQRVLEHRRRNQLQKKKKEELEAK,3.62
15,LQRVLEHRRRNQLNKKKKEELEAK,3.74
16,LQRVLEHRRRNQLEKKKKEELEAK,4.18
17,LQRVLEHRRRNQLYKKKKEELEAK,3.28
18,LQRVLEHRRRNQLCKKKKEELEAK,3.42
19,LQRVLEHRRRNQLVKKKKEELEAK,4.25
20,LQRVLEHRRRNQLSKKKKEELEAK,3.92
21,LQRVLEHRRRNQGIKKKKEELEAK,4.31
22,LQRVLEHRRRNQIIKKKKEELEAK,3.76
23,LQRVLEHRRRNQAIKKKKEELEAK,3.51
24,LQRVLEHRRRNQYIKKKKEELEAK,3.37

row,Variant,protein stability index
1,LQRVLEHRRRNQVIKKKKEELEAK,3.08
2,LQRVLEHRRRNQKIKKKKEELEAK,3.43
3,LQRVLEHRRRNQEIKKKKEELEAK,4.54
4,LQRVLEHRRRNQTIKKKKEELEAK,3.32
5,LQRVLEHRRRNQMIKKKKEELEAK,3.83
6,LQRVLEHRRRNQCIKKKKEELEAK,3.3
7,LQRVLEHRRRNQSIKKKKEELEAK,3.72
8,LQRVLEHRRRNQLIKKCKEELEAK,2.8
9,LQRVLEHRRRNQLIKKYKEELEAK,3.37
10,LQRVLEHRRRNQLIKKEKEELEAK,4.31
11,LQRVLEHRRRNQLIKKWKEELEAK,3.74
12,LQRVLEHRRRNQLIKKQKEELEAK,3.8
13,AQRVLEHRRRNQLIKKKKEELEAK,4.61
14,DQRVLEHRRRNQLIKKKKEELEAK,5.36
15,GQRVLEHRRRNQLIKKKKEELEAK,4.37
16,FQRVLEHRRRNQLIKKKKEELEAK,3.13
17,KQRVLEHRRRNQLIKKKKEELEAK,4.85
18,LQRVLEHRRRNRLIKKKKEELEAK,4.07
19,LQRVLEHRRRNELIKKKKEELEAK,4.11
20,LQRVLEHRRRNFLIKKKKEELEAK,2.66
21,LQRVLEHRRRNNLIKKKKEELEAK,3.1
22,LQRVLEHRRRNWLIKKKKEELEAK,1.5
23,LQRVLEHRRRNYLIKKKKEELEAK,2.8
24,LQRVLEHRRRNSLIKKKKEELEAK,3.11

row,Variant,protein stability index
1,LQRVLEHRRRNVLIKKKKEELEAK,3.45
2,LQRVLEHRRRNGLIKKKKEELEAK,2.85
3,LQRVLEHRRRNMLIKKKKEELEAK,3.45
4,LQRVLEHRRRSQLIKKKKEELEAK,3.6
5,LQRVLEHRRRKQLIKKKKEELEAK,3.62
6,LQRVLEHRRRDQLIKKKKEELEAK,3.56
7,LQRVLEHRRRGQLIKKKKEELEAK,3.57
8,LQRVLEHRRRYQLIKKKKEELEAK,2.97
9,LQRVLEHRRRPQLIKKKKEELEAK,3.24
10,LQRVLEHRRRAQLIKKKKEELEAK,2.24
11,LQRVLEHRRRVQLIKKKKEELEAK,3.25
12,LQRVLEHRRRLQLIKKKKEELEAK,2.65
13,LQRVLEHRRRHQLIKKKKEELEAK,3.23
14,LQRVLEHRRRWQLIKKKKEELEAK,1.93
15,LQRVLEHRRRTQLIKKKKEELEAK,3.38
16,LQSVLEHRRRNQLIKKKKEELEAK,4.04
17,LQLVLEHRRRNQLIKKKKEELEAK,2.39
18,LQQVLEHRRRNQLIKKKKEELEAK,3.92
19,LQCVLEHRRRNQLIKKKKEELEAK,3.13
20,LQNVLEHRRRNQLIKKKKEELEAK,3.79
21,LQYVLEHRRRNQLIKKKKEELEAK,3.39
22,LQVVLEHRRRNQLIKKKKEELEAK,3.6
23,LQHVLEHRRRNQLIKKKKEELEAK,4.12
24,LQTVLEHRRRNQLIKKKKEELEAK,3.8

row,Variant,protein stability index
1,LQRPLEHRRRNQLIKKKKEELEAK,4.66
2,LQRALEHRRRNQLIKKKKEELEAK,4.09
3,LQRELEHRRRNQLIKKKKEELEAK,4.49
4,LQRKLEHRRRNQLIKKKKEELEAK,4.39
5,LQRSLEHRRRNQLIKKKKEELEAK,3.69
6,LQRFLEHRRRNQLIKKKKEELEAK,2.05
7,LQRNLEHRRRNQLIKKKKEELEAK,4.87
8,LQRVLEHRMRNQLIKKKKEELEAK,2.77
9,LQRVLEHRSRNQLIKKKKEELEAK,4.03
10,LQRVLEHRGRNQLIKKKKEELEAK,4.14
11,LERVLEHRRRNQLIKKKKEELEAK,3.89
12,LDRVLEHRRRNQLIKKKKEELEAK,3.25
13,LTRVLEHRRRNQLIKKKKEELEAK,4.02
14,LFRVLEHRRRNQLIKKKKEELEAK,2.16
15,LGRVLEHRRRNQLIKKKKEELEAK,4.38
16,LCRVLEHRRRNQLIKKKKEELEAK,2.98
17,LLRVLEHRRRNQLIKKKKEELEAK,1.81
18,LARVLEHRRRNQLIKKKKEELEAK,2.93
19,LWRVLEHRRRNQLIKKKKEELEAK,2.06
20,LMRVLEHRRRNQLIKKKKEELEAK,2.78
21,LIRVLEHRRRNQLIKKKKEELEAK,1.8
22,LQRVLEHRRYNQLIKKKKEELEAK,4.04
23,LQRVLEHRRTNQLIKKKKEELEAK,4.57
24,LQRVLEHRRPNQLIKKKKEELEAK,4.23

row,Variant,protein stability index
1,LQRVLEHRRCNQLIKKKKEELEAK,3.14
2,LQRVLEHRRGNQLIKKKKEELEAK,4.15
3,LQRVLEHRRDNQLIKKKKEELEAK,4.77
4,LQRVLEHRRNNQLIKKKKEELEAK,3.55
5,LQRVLEHRRENQLIKKKKEELEAK,3.75
6,LQRVLEHRRKNQLIKKKKEELEAK,3.29
7,LQRVLEHRRLNQLIKKKKEELEAK,3.66
8,LQRVLEHRRRNQLIHKKKEELEAK,4.23
9,LQRVLEHRRRNQLIYKKKEELEAK,3.51
10,LQRVLEHRRRNQLICKKKEELEAK,3.52
11,LQRVLEHRRRNQLILKKKEELEAK,3.84
12,LQRVLEHRRRNQLIQKKKEELEAK,3.7
13,LQRVLEHRRRNQLISKKKEELEAK,3.86
14,LQRVLEHRRRNQLIGKKKEELEAK,4.49
15,LQRVLEHRRRNQLITKKKEELEAK,3.87
16,LQRVLEHRRRNQLIAKKKEELEAK,4.16
17,LQRVLEHIRRNQLIKKKKEELEAK,2.42
18,LQRVLEHKRRNQLIKKKKEELEAK,3.82
19,LQRVLEHDRRNQLIKKKKEELEAK,4.61
20,LQRVLEHHRRNQLIKKKKEELEAK,2.89
21,LQRVLEHFRRNQLIKKKKEELEAK,2.1
22,LQRVLEHNRRNQLIKKKKEELEAK,3.53
23,LQRVLEHMRRNQLIKKKKEELEAK,3.38
24,LQRVLEHPRRNQLIKKKKEELEAK,3.45

row,Variant,protein stability index
1,LQRVLEHGRRNQLIKKKKEELEAK,3.39
2,LQRVLEHRRRNQLIKKKWEELEAK,3.1
3,LQRVLEHRRRNQLIKKKCEELEAK,3.37
4,LQRVLEHRRRNQLIKKKHEELEAK,3.67
5,LQRVLEHRRRNQLIKKKTEELEAK,3.93
6,LQRVLEHRRRNQLIKKKSEELEAK,3.62
7,LQRVLEHRRRNQLIKKKKEMLEAK,3.5
8,LQRVLEHRRRNQLIKKKKEALEAK,3.12
9,LQRVLEHRRRNQLIKKKKEGLEAK,2.42
10,LQRVLEHRRRNQLIKKKKELLEAK,3.03
11,LQRVLEHRRRNQLIKKKKEQLEAK,2.12
12,LQRVLEHRRRNQLIKKKKENLEAK,3.35
13,LQRVLEHRRRNQLIKKKKEILEAK,3.35
14,LQRVLEHRRRNQLIKKKKEYLEAK,2.94
15,LQRVLEHRRRNQLIKKKKEELEAT,3.97
16,LQRVLEHRRRNQLIKKKKEELEAL,3.04
17,LQRVLEHRRRNQLIKKKKEELEAI,3.57
18,LQRVLEHRRRNQLIKKKKEELEAV,3.91
19,LQRVLEHRRRNQLIKKKKEELEAW,2.88
20,LQRVLEHRRRNQLIKKKKEELEAA,3.62

# Source: the supplement of paper PMC10567573
